Measurements published in US7462695B2, “Insect chymotrypsin and inhibitors thereof” (Hexima Limited, priority 2003, dated 2008).
One block for each molecule: values may come before it.

How the values were obtained:
bovine chymotrypsin = bovine chymotrypsin (Bos taurus, UniProt P00766); experiment: Inhibition of bovine chymotrypsin; type: biochemical; conditions: 100 ng bovine chymotrypsin, pH 10; for % Inhibition BC: at maximum concentration tested
Experimental: (§1) Several proteinase inhibitors were tested for their ability to inhibit the activity of the insensitive chymotrypsins. The buffer used for all assays was 500 mM CAPS, 75 mM NaCl, 2.5 mM MgCl2 at pH 10.

[1] = tested on: chymotrypsin activity in unfractionated gut extracts from H. punctigera; experiment: Chymotrypsin activity in unfractionated gut extracts with proteinase inhibitors (FIG. 3); type: biochemical, Helicoverpa punctigera; conditions: larvae raised on haricot bean diet without added proteinase inhibitors; substrate SAAPFpNA
Experimental: FIG. 3 is a graphical representation showing the effect of various proteinase inhibitors on the chymotrypsin activity in unfractionated gut extracts from H. punctigera. Proteinase inhibitors were mixed with 1 μg of protein from an unfractionated gut extract before incubation with the chymotrypsin substrate N-succinyl-Ala-Ala-Pro-Phe-p-nitroanilide. Inhibition is expressed as a percentage of the total activity in the control samples.
Fourth-instar larvae were killed using ethyl-acetate prior the removal of individual gut which were then homogenized in a mortar and pestle in an equal amount [(w/v)] of 50 mM Tris-HCl, pH 8.0 containing 100 μM benzamidine. Insoluble material was removed by centrifugation at 20,000 rpm for 15 min at 4° C. and total protein concentration determined using the Bradford method (Bradford, Anal Biochem 72: 248-254, 1976) with reagents from BioRad and BSA as a standard.
Unfractionated gut extract containing approximately 1 μg of buffer soluble protein was added to 10 μL CAPS buffer (0.5 M, 3-[cyclohexylamino]-1-propane-sulfonic acid, pH 10) and made to a final volume of 100 μL in individual wells of a 96 well microtiter plate. Proteinase inhibitors were added over a range of concentrations and incubated for 15 min at 25° C. Bovine chymotrypsin (100 ng) was used as a positive control, both for activity and inhibition. The chromogenic artificial substrate SAAPFpNA (N-Succinyl-L-alanyl-L-alanyl-L-prolyl-L-phenylalanine 4-nitroanilide) was then added to a final concentration of 1 mM and hydrolysis of the substrate was measured at 405 nm using the SpectraMax 250 microtiter plate reader (Molecular Devices).

[2] = tested on: chymotrypsin activity in gut extracts of H. punctigera larvae; experiment: Inhibition of chymotrypsin activity in individual larval gut extracts (FIG. 2F); type: biochemical, Helicoverpa punctigera; conditions: pre-incubated with 80 nM
From the text: FIG. 2 is a graphical representation showing growth of H. punctigera larvae fed on either low protein haricot bean artificial diet or cotton leaf artificial diet, in the presence or absence of 0.26% (w/v) NaPIs. Weight gain (mg) was monitored for 21 days. […] (A) Growth of larvae. (B) Relative size of larvae at 21 days after feeding on cotton artificial diet, in the presence or absence of 0.26% NaPIs. […] (C) The effect of NaPIs on gut trypsin and chymotrypsin activity. When each H. punctigera larva reached the late fourth/early fifth instar stage of development, the gut was removed and gut extract prepared prior to assays for trypsin and chymotrypsin activity. […] Trypsin activity was determined using BApNA substrate and chymotrypsin activity with SAAPFpNA substrate. Units of activity are expressed as change in absorbance at 405 nm/min/mg gut extract protein (±standard deviation). […] Trypsin activity was determined using BApNA substrate and chymotrypsin activity with SAAPFpNA substrate. Units of activity are expressed as change in absorbance at 405 nm/min/mg faecal extract protein (±standard deviation). […] Frass extracts were analysed on 15% ((w/v)) SDS-PAGE and transferred to nitrocellulose. […] Units of activity are expressed as substrate hydrolysis at 405 nm/min/mg extract protein (±standard deviation). […] Trypsin activity was determined using BApNA substrate. […]

[3] = biological target: NaPI-insensitive chymotrypsins from H. punctigera (Helicoverpa punctigera, UniProt A0PGE0); experiment: Inhibition of NaPI-insensitive chymotrypsin (gut extract depleted of trypsins and NaPI-sensitive chymotrypsins); type: biochemical; conditions: pH 10, 30 min preincubation at 30° C.
Experimental: The midgut was dissected from 100 fourth instar larvae and buffer soluble extracts were prepared. The gut extract was depleted of NaPI-sensitive proteases by passage through an affinity column composed of immobilized NAPI protein (C1, C2, T1-T4). […] This preparation of unbound material was used to study the pH optimum, substrate preference and effect of a range of proteinase inhibitors on the activity of the NaPI-insensitive proteinase. […] The best substrate for enzyme assays was determined using seven different commercial substrates.
as §1

[4] = tested on: trypsin activity in gut extracts; conditions: in vitro, cited from earlier work
[5] = tested on: chymotrypsin from the gut of H. zea larvae; conditions: cited from earlier work
[6] = tested on: Agrotis ipsilon (black cutworm); conditions: after exposure in the diet; cited from earlier work

Chain of NaPI-insensitive chymotrypsins from H. punctigera (A0PGE0 entry or part of it): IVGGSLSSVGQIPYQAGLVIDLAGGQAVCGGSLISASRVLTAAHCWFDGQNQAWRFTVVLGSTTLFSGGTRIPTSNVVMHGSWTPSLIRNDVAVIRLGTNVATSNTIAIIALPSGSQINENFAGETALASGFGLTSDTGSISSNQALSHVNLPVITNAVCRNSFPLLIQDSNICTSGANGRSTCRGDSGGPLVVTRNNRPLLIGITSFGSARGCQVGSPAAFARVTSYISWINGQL

Molecule: CC(C)C[C@H](NC(=O)[C@@H](NC(=O)N[C@@H](Cc1ccccc1)C(=O)O)[C@@H]1CCN=C(N)N1)C(=O)N[C@H](C=O)Cc1ccccc1 [Chymostatin, reference compound]
% Inhibition BC (bovine chymotrypsin): 100%
inhibition of gut chymotrypsin activity (in words) [1]: totally inhibited
inhibition of chymotrypsin activity, extracts from control and NaPI-fed larvae [2]: all chymotrypsin activity was abolished

% Inhibition Insensitive ([3]; at maximum concentration tested): 82%
IC50 [3]: 33 µM
IC50 (bovine chymotrypsin): 13 µM
% Inhibition BC (bovine chymotrypsin): 94%
B1: SBTI: soybean trypsin inhibitor (protein, UniProt P01070 25-205, looked up)
Trypsin inhibitor A: DFVLDNEGNPLENGGTYYILSDITAFGGIRAAPTGNERCPLTVVQSRNELDKGIGTIISSPYRIRFIAEGHPLSLKFDSFAVIMLCVGIPTEWSVVEDLPEGPAVKIGENKDAMDGWFRLERVSDDEFNNYKLVFCPQQAEDDKCGDIGISIDHDDGTRRLVVSKNKPLVVQFQKLDKESL
inhibition of gut chymotrypsin activity (in words) [1]: failed to abolish all the chymotrysin activity
inhibition of gut trypsin activity in larvae that had consumed SBTI ([4]; 48 h on diet with 1% SBTI): 3%
inhibition of trypsin activity in gut extracts from control larvae [4]: 74%
inhibition of chymotrypsin activity from the gut of insects with prior exposure to SBTI in the diet [5]: 35%
inhibition of chymotrypsin from the gut of control insects [5]: 95%
reduction in total gut proteolytic activity [6]: ≤ 70%
